Results published in US20250340623A1 (AC IMMUNE, published 2025).
Changes are numbered by the printed parent chain. Where no end group is shown, it is not given here. The star is where a group is joined. Biotin = O=C1N[C@H]2[C@H](CS[C@H]2CCCCC(=O)*)N1; Ahx = NCCCCCC(=O)O

T1: 64-78aa
T1 construct: also called alpha-synuclein peptide 64-78
T1 peptide: {Biotin-Ahx}-TNVGGAVVTGVTAVA

T2: 82-96aa
T2 construct: also called alpha-synuclein peptide 82-96
T2 peptide: {Biotin-Ahx}-VEGAGSIAAATGFVK

T3: 91-105aa
T3 peptide: {Biotin-Ahx}-ATGFVKKDQLGKNEE

T4: 118-132aa
T4 peptide: {Biotin-Ahx}-VDPDNEAYEMPSEEG

T5: 127-140aa
T5 peptide: {Biotin-Ahx}-MPSEEGYQDYEPEA

T6: 1-14aa
T6 construct: also called alpha-synuclein peptide 1-14
T6 peptide: MDVFMKGLSKAKEG-biotin

T7: 1-15aa
T7 construct: also called alpha-synuclein peptide 1-15
T7 peptide: {Biotin-Ahx}-MDVFMKGLSKAKEGV

T8: 10-24aa
T8 construct: also called alpha-synuclein peptide 10-24
T8 peptide: {Biotin-Ahx}-KAKEGVVAAAEKTKQ

T9: 46-60aa
T9 construct: also called alpha-synuclein peptide 46-60
T9 peptide: {Biotin-Ahx}-EGVVHGVATVAEKTK

B1: ACI-7067-1108H1-Ab1 (antibody, V domains shown)
VH: EVKLVESGGGLVQPGGSMKLSCTASGFTFSDAWMNWVRQSPEKGLEWVAEIRNKAHNHATNYAESVKGRFTISGDDSKSSVYLQMNNLRAEDTGIYYCTIYSFWGQGTLVTVSA
VL: SIVMTQTPKFLLVSAGDRVTITCKASQSVTNYVAWYHQKPGQSPKLLIYSASNRYSGVPDRFTGSGYGTDFTFTINTVQTEDLAVYFCQQDYRIPYTFGGGTKLEIK
notes: mouse hybridoma mAb; VH/VL only; also called 1108H1E1
B2: ACI-7067-1101C8-Ab2 (antibody, V domains shown)
VH: EVQLVESGGGLVQPKGSLKLSCAASGFSFNIYAMNWVRQAPGKGLEWVARIRSKSNNYATYYADSVKDRFTISRADSESMLYLQMNNLKTEDTAMYYCVRVGLRFYAMDYWGQGTSVTVSS
VL: DVLMTQTPLSLPVSLGDQASISCRSSQSIVHSNGNTYLEWYLQKPGQSPKLLIYKVSNRFSGVPDRFSGSGSGTDFTLKISRVEAEDLGVYYCFQGSQGPLTFGAGTKLELK
notes: mouse hybridoma mAb; VH/VL only; also called 1101C8F7
B3: ACI-7079-2503C6-Ab1 (antibody, V domains shown)
VH: DVQLQESGPGLVKPSQSLSLTCSVTGYSITSGYYWNWIRLFPGNKLEWLGYINYDGSNNFNPSLKNRISITRDTSKNQFFLKLNSVTSEDTATYFCLRGDWDWGQGTLVTVSA
VL: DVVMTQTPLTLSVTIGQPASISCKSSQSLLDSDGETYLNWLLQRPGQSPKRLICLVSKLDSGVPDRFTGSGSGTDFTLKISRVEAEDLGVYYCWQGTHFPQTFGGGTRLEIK
notes: mouse hybridoma mAb; VH/VL only; also called 2503C6H9
B4: ACI-7067-1107G5-Ab2 (antibody, V domains shown)
VH: QVQLQQPGTELVKPGASVKLSCKASGYTFTKYWMHWVKQRPGQGLEWIGNINPNNGDTNYNEKFKSKATLTVDKSSSTAYMQLSSLTSEDSAVYYCAIAMDYWGQGTSVTVSS
VL: DIQMTQSPSSLSAFLGERVSLTCRASQDIGNNLNWFQQEPDGTIKRLIYATSSLDSGVPKRFSGSRSGSEYSLTISSLESEDFVDYYCLQFGSSPLTFGAGTKLELK
notes: mouse hybridoma mAb; VH/VL only; also called 1107G5B6
B5: ACI-7067-1111B12-Ab2 (antibody, V domains shown)
VH: B4 VH with Q5L, E10A, K13M, K31T, N54I, D57G, T58S, T69S, A97V
VL: B4 VL with F14S, N31I, N32S, S65N, E70D, V84A, G92A
notes: mouse hybridoma mAb; VH/VL only; also called 1111B12H10
B6: ACI-7067-1116F2-Ab1 (antibody, V domains shown)
VH: DVQLQESGPGFVKPSQSLSLTCSVTGYSITRGFYWNWIRQFPGNKLEWMGYISDDGNSNYNPSLKNRISITRDTFKNQVFLRLNSVTTEDTATYYCTRGDLLWGQGTTLTVSS
VL: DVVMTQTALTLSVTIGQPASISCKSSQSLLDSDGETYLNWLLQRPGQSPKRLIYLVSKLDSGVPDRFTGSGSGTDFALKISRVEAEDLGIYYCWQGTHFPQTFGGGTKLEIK
notes: mouse hybridoma mAb; VH/VL only; also called 1116F2A2
B7: ACI-7079-2501G2-Ab2 (antibody, V domains shown)
VH: B2 VH with S28N, I31T, S53T, Y58F, D64H, A75D, V101Q, R104A, F105Y
VL: B2 VL with A19V, S28T
notes: mouse hybridoma mAb; VH/VL only; also called 2501G2E5
B8: ACI-7079-2501B11-Ab3 (antibody, V domains shown)
VH: QVQLQQSGPELVKPGASVKISCKASGYAFSSFWMNWMKQRPGKGLEWIGRIYPGDGDAHYNGEFKGRATLTADKSSSTAYMQLSSLTSEDSAVYFCARKGDFYGSNYDYWGQGTTLTVSS
VL: QAVVTQESALTTSPGETVTLTCRSSTGAVTTSNYANWVQEKPDHLFTGLIGGTNNRAPGVPARFSGSLIGDKAALTITGAQTEDEAIYFCALWYSNHLVFGGGTRLTVL
notes: mouse hybridoma mAb; VH/VL only; also called 2501B11C7
B9: ACI-7079-2506E2-Ab2 (antibody, V domains shown)
VH: QVQLQQSGPELVRPGASVKISCKASGYAFSNSWMNWVKQRPGKGLEWIGRIFPGDGDTYYDGKFKGKVKLTTDKFSNTAYMQLRSLTSEDSAVYFCARWGGTNDEWFAHWGQGTLVTVSV
VL: DIVLTQSPASLTVSLGQRATISCRASQSVSTSRNSYMHWYQQKPRQPPKLLIKYASNLESGVPARFSGSGSGADFTLNIHPVEEEDTATYYCQHSWDIPLTFGTGTKLELS
notes: mouse hybridoma mAb; VH/VL only; also called 2506E2G4
B10: ACI-7079-2606A6-Ab2 (antibody, V domains shown)
VH: QVQLQQSGPELVKPGASVKISCKASGFAFSSSWMNWVKQRPGKGLEWVGRIFPGDGDTNYDRKFKDKATLTADKSSSTAYMQLSSLTSEDSAVYFCARWTGGYDWFAYWGQGTLVTVSA
VL: DIVLTQSPASLAVSLGQRATISCRASQSVSTSNYNYLHWYQQKPGQPPKLLITYASNLESGVPARFSGSGSGTDFTLNIHPVEEGDTATYYCQHSWEIPLTFGAGTKLELK
notes: mouse hybridoma mAb; VH/VL only; also called 2606A6D5
B11: ACI-7079-2511B3-Ab3 (antibody, V domains shown)
VH: B3 VH with Y27F, G32Y, L40Q, L49M, G50A, N53S, F60Y, S88T, F95Y, L97T
VL: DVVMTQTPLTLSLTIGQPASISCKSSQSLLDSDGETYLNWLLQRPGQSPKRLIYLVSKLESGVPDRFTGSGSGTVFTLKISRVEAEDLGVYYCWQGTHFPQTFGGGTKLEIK
notes: mouse hybridoma mAb; VH/VL only; also called 2511B3B12

target: alpha-synuclein seeds (UniProt P37840 1-140); assay: cell-based or functional assay

How did the “aggregation half-time (τ1/2) of seeded alpha-synuclein aggregation, ThT; no antibody 26.9 hours” value (“aggregation half-time … no antibody 26.9 hours” for short) turn out when B1 was run?
Its value is 28 h.

B2 was tested. Which “aggregation half-time … no antibody 26.9 hours” value did it give?
Its value is 64 h.

Which “aggregation half-time … no antibody 26.9 hours” value does the source give for B3 here?
Its value is 22.5 h.

Target: T1, 64-78aa
Assay: indirect ELISA on biotinylated 15-mer peptide
Experimental: (§1) Serum-free supernatants were harvested from stable hybridomas. The supernatants containing antibodies of interest were then screened by an indirect ELISA assay to determine epitopes. Epitopes were first determined using a library of 15-mer peptides covering the entire sequence of human alpha-synuclein protein, spanning amino acids (aa) 1-140 with 9aa offset and […] overlap. […] Briefly, streptavidin-coated ELISA plates were blocked overnight at 4° C. […] Plates were washed with PBS/0.05% Tween®20 and then incubated with the hybridoma supernatants at 1/100 dilution for 1 hour at 25° C.

Does B2 bind?
Result: no binding (tested: supernatant 1/100)

Does B4 bind?
Result: no binding (tested: supernatant 1/100)

Does B5 bind?
Result: no binding (tested: supernatant 1/100)

Does B6 bind?
Result: no binding (tested: supernatant 1/100)

Target: T2, 82-96aa
Assay: indirect ELISA on biotinylated 15-mer peptide
Experimental: as §1

Does B1 bind?
Result: no binding (tested: supernatant 1/100)

Does B2 bind?
Result: no binding (tested: supernatant 1/100)

Does B7 bind?
Result: no binding (tested: supernatant 1/100)

Does B4 bind?
Result: no binding (tested: supernatant 1/100)

Does B5 bind?
Result: no binding (tested: supernatant 1/100)

Does B8 bind?
Result: no binding (tested: supernatant 1/100)

Does B9 bind?
Result: no binding (tested: supernatant 1/100)

Does B10 bind?
Result: no binding (tested: supernatant 1/100)

Target: T3, 91-105aa
Assay: indirect ELISA on biotinylated 15-mer peptide
Experimental: as §1

Does B7 bind?
Result: no binding (tested: supernatant 1/100)

Does B3 bind?
Result: no binding (tested: supernatant 1/100)

Does B11 bind?
Result: no binding (tested: supernatant 1/100)

Does B9 bind?
Result: no binding (tested: supernatant 1/100)

Target: T4, 118-132aa
Assay: indirect ELISA on biotinylated 15-mer peptide
Experimental: as §1

Does B1 bind?
Result: no binding (tested: supernatant 1/100)

Does B3 bind?
Result: no binding (tested: supernatant 1/100)

Does B11 bind?
Result: no binding (tested: supernatant 1/100)

Does B4 bind?
Result: no binding (tested: supernatant 1/100)

Does B5 bind?
Result: no binding (tested: supernatant 1/100)

Does B8 bind?
Result: no binding (tested: supernatant 1/100)

Does B10 bind?
Result: no binding (tested: supernatant 1/100)

Does B6 bind?
Result: no binding (tested: supernatant 1/100)

Target: T5, 127-140aa
Assay: indirect ELISA on biotinylated 15-mer peptide
Experimental: as §1

Does B1 bind?
Result: no binding (tested: supernatant 1/100)

Does B2 bind?
Result: no binding (tested: supernatant 1/100)

Does B7 bind?
Result: no binding (tested: supernatant 1/100)

Does B3 bind?
Result: no binding (tested: supernatant 1/100)

Does B11 bind?
Result: no binding (tested: supernatant 1/100)

Does B4 bind?
Result: no binding (tested: supernatant 1/100)

Does B5 bind?
Result: no binding (tested: supernatant 1/100)

Does B8 bind?
Result: no binding (tested: supernatant 1/100)

Does B9 bind?
Result: no binding (tested: supernatant 1/100)

Does B10 bind?
Result: no binding (tested: supernatant 1/100)

Does B6 bind?
Result: no binding (tested: supernatant 1/100)

Target: T6, 1-14aa
Assay: indirect ELISA on biotinylated 15-mer peptide
Experimental: as §1

Does B7 bind?
Result: no binding (tested: supernatant 1/100)

Does B3 bind?
Result: no binding (tested: supernatant 1/100)

Does B11 bind?
Result: no binding (tested: supernatant 1/100)

Does B8 bind?
Result: no binding (tested: supernatant 1/100)

Does B9 bind?
Result: no binding (tested: supernatant 1/100)

Does B10 bind?
Result: no binding (tested: supernatant 1/100)

Target: T7, 1-15aa
Assay: indirect ELISA on biotinylated 15-mer peptide
Experimental: as §1

Does B7 bind?
Result: no binding (tested: supernatant 1/100)

Does B3 bind?
Result: no binding (tested: supernatant 1/100)

Does B11 bind?
Result: no binding (tested: supernatant 1/100)

Does B8 bind?
Result: no binding (tested: supernatant 1/100)

Does B9 bind?
Result: no binding (tested: supernatant 1/100)

Does B10 bind?
Result: no binding (tested: supernatant 1/100)

Target: T8, 10-24aa
Assay: indirect ELISA on biotinylated 15-mer peptide
Experimental: as §1

Does B7 bind?
Result: no binding (tested: supernatant 1/100)

Does B3 bind?
Result: no binding (tested: supernatant 1/100)

Does B11 bind?
Result: no binding (tested: supernatant 1/100)

Does B8 bind?
Result: no binding (tested: supernatant 1/100)

Does B9 bind?
Result: no binding (tested: supernatant 1/100)

Does B10 bind?
Result: no binding (tested: supernatant 1/100)

Target: T9, 46-60aa
Assay: indirect ELISA on biotinylated 15-mer peptide
Experimental: as §1

Does B1 bind?
Result: no binding (tested: supernatant 1/100)

Does B2 bind?
Result: no binding (tested: supernatant 1/100)

Does B7 bind?
Result: no binding (tested: supernatant 1/100)

Does B3 bind?
Result: no binding (tested: supernatant 1/100)

Does B11 bind?
Result: no binding (tested: supernatant 1/100)

Does B8 bind?
Result: no binding (tested: supernatant 1/100)

Does B9 bind?
Result: no binding (tested: supernatant 1/100)

Does B10 bind?
Result: no binding (tested: supernatant 1/100)

Does B6 bind?
Result: no binding (tested: supernatant 1/100)

Target: T1, 64-78aa
Assay: indirect ELISA on biotinylated 15-mer peptide, supernatant 1/100
Experimental: as §1

Does B1 bind?
Result: binds

Target: T2, 82-96aa
Assay: as above
Experimental: as §1

Does B3 bind?
Result: binds

Does B11 bind?
Result: binds

Does B6 bind?
Result: binds

Target: T3, 91-105aa
Assay: as above
Experimental: as §1

Does B8 bind?
Result: binds

Does B10 bind?
Result: binds

Target: T4, 118-132aa
Assay: as above
Experimental: as §1

Does B2 bind?
Result: binds

Does B7 bind?
Result: binds

Does B9 bind?
Result: binds

Target: T9, 46-60aa
Assay: as above
Experimental: as §1

Does B4 bind?
Result: binds

Does B5 bind?
Result: binds
